# In patent US20220411487A1 (Regeneron, published 2022):
# Where a chain is given by its changes, count along the chain named. Names and notes keep the numbering of the source.
# T1: full length human TMPRSS6 with a C-terminal triple myc tag on HEK293.hHJV cells (HEK293.hHJV/3xMyc.hTMPRSS6) (human, UniProt Q8IU80 1-811)
# T1 sequence: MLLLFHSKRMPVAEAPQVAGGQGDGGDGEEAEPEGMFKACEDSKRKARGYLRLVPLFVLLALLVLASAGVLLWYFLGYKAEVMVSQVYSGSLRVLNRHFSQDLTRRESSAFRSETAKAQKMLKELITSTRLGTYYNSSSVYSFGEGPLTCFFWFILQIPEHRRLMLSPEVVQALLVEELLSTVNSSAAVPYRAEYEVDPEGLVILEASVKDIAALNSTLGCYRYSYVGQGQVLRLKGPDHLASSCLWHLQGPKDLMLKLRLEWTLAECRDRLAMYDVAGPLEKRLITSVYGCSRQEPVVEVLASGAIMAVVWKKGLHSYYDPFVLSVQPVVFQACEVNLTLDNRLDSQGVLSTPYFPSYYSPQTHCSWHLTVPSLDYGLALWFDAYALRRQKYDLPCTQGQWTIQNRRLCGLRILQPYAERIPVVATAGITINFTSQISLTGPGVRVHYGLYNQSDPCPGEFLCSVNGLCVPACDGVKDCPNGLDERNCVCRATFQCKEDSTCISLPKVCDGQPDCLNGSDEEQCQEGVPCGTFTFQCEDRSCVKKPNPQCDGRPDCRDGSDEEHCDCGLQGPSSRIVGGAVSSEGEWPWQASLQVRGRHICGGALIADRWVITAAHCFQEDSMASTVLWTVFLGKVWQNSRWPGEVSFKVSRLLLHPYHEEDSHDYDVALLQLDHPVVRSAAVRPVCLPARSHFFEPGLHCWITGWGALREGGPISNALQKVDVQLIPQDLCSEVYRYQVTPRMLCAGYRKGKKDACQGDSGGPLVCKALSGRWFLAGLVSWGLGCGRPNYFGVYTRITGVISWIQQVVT
# T2: full-length mouse TMPRSS6 with a C-terminal triple myc tag on HEK293.hHJV cells (HEK293.hHJV/3xMyc.mTMPRSS6) (mouse, UniProt Q9DBI0 1-811)
# T2 sequence: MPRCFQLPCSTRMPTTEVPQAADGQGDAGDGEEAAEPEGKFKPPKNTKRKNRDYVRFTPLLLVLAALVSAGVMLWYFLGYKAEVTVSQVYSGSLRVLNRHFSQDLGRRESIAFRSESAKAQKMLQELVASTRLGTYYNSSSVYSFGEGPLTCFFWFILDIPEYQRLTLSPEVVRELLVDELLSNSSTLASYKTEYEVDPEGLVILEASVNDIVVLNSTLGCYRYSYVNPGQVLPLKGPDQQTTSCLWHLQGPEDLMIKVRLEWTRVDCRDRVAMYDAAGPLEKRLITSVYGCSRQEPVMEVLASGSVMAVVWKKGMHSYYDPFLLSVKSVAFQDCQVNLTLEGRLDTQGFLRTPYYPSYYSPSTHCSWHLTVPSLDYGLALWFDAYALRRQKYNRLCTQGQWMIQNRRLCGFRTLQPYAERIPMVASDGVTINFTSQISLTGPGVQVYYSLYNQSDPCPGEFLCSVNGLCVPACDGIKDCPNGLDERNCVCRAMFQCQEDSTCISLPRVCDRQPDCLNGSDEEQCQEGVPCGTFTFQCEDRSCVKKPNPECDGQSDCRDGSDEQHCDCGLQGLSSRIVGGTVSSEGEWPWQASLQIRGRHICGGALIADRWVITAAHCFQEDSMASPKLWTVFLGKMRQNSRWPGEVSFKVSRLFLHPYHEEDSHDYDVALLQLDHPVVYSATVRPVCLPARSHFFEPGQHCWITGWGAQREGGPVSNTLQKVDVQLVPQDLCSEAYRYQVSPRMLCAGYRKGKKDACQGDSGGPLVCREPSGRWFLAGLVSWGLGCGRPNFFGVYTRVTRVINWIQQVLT
# T3: full length human TMPRSS6 on HEK293 cells (HEK293/hTMPRSS6) (human, UniProt Q8IU80 10-811)
# T3 construct: whole, on cells
# T3 sequence (looked up): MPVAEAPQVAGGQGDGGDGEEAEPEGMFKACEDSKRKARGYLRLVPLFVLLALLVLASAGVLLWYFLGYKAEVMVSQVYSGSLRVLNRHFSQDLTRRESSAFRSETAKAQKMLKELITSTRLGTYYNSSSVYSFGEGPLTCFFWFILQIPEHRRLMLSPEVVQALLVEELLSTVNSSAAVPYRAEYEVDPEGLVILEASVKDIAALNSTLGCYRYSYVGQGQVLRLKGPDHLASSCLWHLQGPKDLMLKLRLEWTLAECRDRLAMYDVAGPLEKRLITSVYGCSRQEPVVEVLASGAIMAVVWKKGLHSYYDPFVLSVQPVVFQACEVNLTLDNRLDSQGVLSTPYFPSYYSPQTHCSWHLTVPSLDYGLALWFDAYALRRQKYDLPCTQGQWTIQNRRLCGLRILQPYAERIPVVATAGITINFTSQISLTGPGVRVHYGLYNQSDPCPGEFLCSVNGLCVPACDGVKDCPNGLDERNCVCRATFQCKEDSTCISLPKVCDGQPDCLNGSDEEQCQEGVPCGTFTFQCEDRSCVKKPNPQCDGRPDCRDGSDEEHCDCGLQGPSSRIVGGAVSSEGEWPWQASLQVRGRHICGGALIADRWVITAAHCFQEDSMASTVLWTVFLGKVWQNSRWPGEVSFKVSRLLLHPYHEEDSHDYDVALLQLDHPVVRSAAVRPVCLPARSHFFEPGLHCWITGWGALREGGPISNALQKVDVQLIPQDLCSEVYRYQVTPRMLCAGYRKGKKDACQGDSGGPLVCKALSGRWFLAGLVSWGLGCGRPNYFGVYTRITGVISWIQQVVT
# B1: REGN8023 (antibody, human IgG4 S228P, kappa, V domains shown)
# VH: EVQLVESGGGLVKPGGSLRISCAASGFIFVDYAMHWVRQAPGKGLEWVSGISWNSGSIGYADSVKGRFTISRDNAKKSLYLQMSGLRPEDTALYYCVKSGFYYVRSYFDNWGQGTLVTVSS
# VL: DIVMTQSPLSLPVTPGEPASISCRSSQSLLDSDDGNTYLDWYLRKPGQSPQLLIYTLSYRASGVPDRFSGSGSGTDFTLKISRVEADDVGVYYCMQRIEFPLTFGGGTKVEIKR
# notes: fully human; human IgG4 Fc with hinge S108P; also called mAb37699
# B2: REGN7969 (antibody, human IgG4 S228P, kappa, V domains shown)
# VH: QVQLVESGGGVVQPGRSLRLSCAASGFTFNNYGMHWVRQAPGKGLEWVAIISYDGSNEYYSDSVKGRFTISRDNSKNTLYLQMNSLRAEDTAVYYCARDQDYGGNLFHYWGQGTLVTVSS
# VL: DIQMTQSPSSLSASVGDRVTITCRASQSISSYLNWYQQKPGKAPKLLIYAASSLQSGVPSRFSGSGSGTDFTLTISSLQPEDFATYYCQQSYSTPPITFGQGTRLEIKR
# notes: fully human; human IgG4 Fc with hinge S108P; also called mAb37746
# B3: REGN7971 (antibody, human IgG4 S228P, kappa, V domains shown)
# VH: B2 VH with N30S, N31T, E58D, S61L, S85N, R98K, D101G, H108A, Y109S
# VL: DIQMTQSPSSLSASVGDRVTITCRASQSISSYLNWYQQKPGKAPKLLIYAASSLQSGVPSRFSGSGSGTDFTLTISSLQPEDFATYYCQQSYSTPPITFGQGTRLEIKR
# notes: fully human; human IgG4 Fc with hinge S108P; also called mAb37763
# B4: REGN7977 (antibody, V domains shown)
# VH: EVQLVESGGGLVKPGGSLRVSCAASGVTFSNVWMSWVRQVPGKGLEWVGRIKSKTDGGTTDYAAPVKGRFTISKDDSKNTLFLQMNSLKTEDTAVYYCTTETGDFWSGYYPRFQHWGQGTLVTVSS
# VL: DIQMTQSPSSLSASVGDRVTITCRASQYISTYLNWYQQKPGKAPSLLIYAASSLQSGVPSRFSGSGSGTDFTLTISSLQPEDFASYSCQQSYSTPPYTFGQGTKLEIKR
# notes: fully human; human IgG4 Fc with hinge S108P; also called mAb41465
# B5: REGN7974 (antibody, human IgG4 S228P, kappa, V domains shown)
# VH: EVQLVESGGGLVQPGRSLRLSCIASGFNFGDYGMSWVRQAPGKGLEWVGFIRSKAYGGTTEYAASVKGRFTISRDDSKSIAYLQMNSLKTEDAAMYYCSRDYYDILTGYYGDYWGQGTLVTVSS
# VL: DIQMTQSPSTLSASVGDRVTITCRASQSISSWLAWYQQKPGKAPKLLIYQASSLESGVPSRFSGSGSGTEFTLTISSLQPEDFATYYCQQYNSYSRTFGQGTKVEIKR
# notes: fully human; human IgG4 Fc with hinge S108P; also called mAb41422
# B6: REGN7999 (antibody, human IgG4 S228P, kappa, V domains shown)
# VH: EVQLVESGGGLVQPGGSLRLSCAASGFTFSSYAMTWVRQAPGKGLEWVSAISGSDTSTYYADSVKGRFTISRDNSKNTLFLQMNSLRAEDTAVYYCAKHQDYDFSYYYSAMDVWGQGTTVTVSS
# VL: DIQMTQSPSSLSASVGDRVIITCRASQDFNSWLAWYQQKPGKAPKLLIYAASSLQSGVPSRFSGSGSGTDFTLTISSLQPEDFATYYCQQTDSFPFTFGPGTKVDIKR
# notes: fully human; human IgG4 Fc with hinge S108P; also called mAb41450
# Target: T1, full length human TMPRSS6 with a …
# Experiment: cell-based or functional assay
"Geometric Mean Fluorescence Intensity of cell surface hHJV, 50 nM mAb","Median Fluorescence Intensity of cell surface hHJV, 50 nM mAb",Binder
55500,77800,B1
47900,67500,B2
61800,84400,B3
49000,63800,B4
40900,56700,B5
30700,40100,B6

# Target: T2, full-length mouse TMPRSS6 with a …
# Experiment: cell-based or functional assay
"Geometric Mean Fluorescence Intensity of cell surface hHJV, 50 nM mAb","Median Fluorescence Intensity of cell surface hHJV, 50 nM mAb",Binder
19000,19400,B1
8390,7810,B2
8230,7470,B3
9130,7030,B4
6960,6220,B5
23700,33600,B6

# Target: T3, full length human TMPRSS6 on HEK293 …
# Experiment: flow cytometry, HEK293 cells expressing target
# Experimental: To assess the binding of anti-TMPRSS6 antibodies of the present disclosure to the receptor expressed on the cell surface, antibodies (including an IgG subclass control) were serially diluted in assay buffer (PBS without Ca⁺⁺ and Mg⁺⁺ containing 2% FBS) from 375 nM to 22.9 pM (plus a sample containing assay buffer alone without test molecule) and incubated with 0.5×10⁶ cells/well at 4° C. for 30 minutes in assay buffer. […] Cells were fixed using BD CytoFix™ (Becton Dickinson, #554655) and analyzed on either the IQue® or IQue®Plus Flow Cytometers (Intellicyt®). Unstained and secondary antibody alone controls were also tested for all cell lines. The results were analyzed using ForeCyt® (IntelliCyt®) software to determine the geometric means of fluorescence for viable cells and binding ratio was calculated by normalizing the geometric mean value of the test condition by the geometric mean value of the corresponding unstained cells.
EC50 [nM],Max. Fold Binding,Binder
0.7,47 fold over unstained control,B1
0.67,52 fold over unstained control,B2
0.97,66 fold over unstained control,B3
1.9,69 fold over unstained control,B4
2.4,54 fold over unstained control,B5
2.2,50 fold over unstained control,B6
